B1: Mb(BgaD_L02) (designed binder)
chain: VSSVPTKLEVVAATPTSLLISWDANGWNYVKYYRITYGETGGNSPVQEFTVPGSSSTATISGLKPGVDYTITVYAYEYYSESSSSPISINYRT
B2: Mb(BgaD_S10) (designed binder)
chain: VSSVPTKLEVVAATPTSLLISWDAPAVTVVFYLITYGETGASSWPGYQEFTVPGSKSTATISGLKPGVDYTITVYAQYPWDTGSPISINYRT
B3: Mb(BgaD_L23) (designed binder)
chain: VSSVPTKLEVVAATPTSLLISWDAFDGYWYDYVSFYRITYGESGGNSPVQEFTVPSSSSTATISGLKPGVDYTITVYAYSHSQQQYLSPNSINYRT
B4: Mb(BgaD_L19) (designed binder)
chain: B3 chain with F35Y, S43T, N90I
B5: Mb(BgaD_S09) (designed binder)
chain: VSSVPTKLEVVAATPTSLLISWDAPAVTVVYYVITYGETGGNSPVQEFTVPGSKSTATISGLKPGVDYTITVYAYSDQVEYYEYFYGSPISINYRT
B6: 1Mb39 S (designed binder)
chain: VSSVPTKLEVVAATPTSLLISWDAPAVTVDFYLITYGETGGPSWPQAFAVPGSKSTATISGLKPGVDYTITVYASSSSRISSSSSKPISINYRT
B7: Mb(BgaD_S12) (designed binder)
chain: B2 chain with L33I, S42A, S43V, Y47H, Q77V, Y78G, T82Y, G83Y
B8: Mb(BgaD_S06) (designed binder)
chain: B2 chain with L33V, S42A, S43V, Y47H, Y78G, P79G, W80R, D81W, T82K, G83S
B9: Mb(BgaD_L24) (designed binder)
chain: B3 chain with T14A, S17T, F35Y, S43T, T62I, S80H, N90I
B10: Mb(BgaD_L22) (designed binder)
chain: B3 chain with F35Y, S43T, E51V, Q84L, N90I
B11: Mb(BgaD_S11) (designed binder)
chain: VSSVPTKLEVVAATPTSLLISWDAPAVTVVLYVITYGETGPGHSAWPQAFTVPGSKSTATISGLKPGVDYTITVYAYWDWDSHRYSPISINYRT
B12: Mb(BgaD_L05) (designed binder)
chain: VSSVPTKLEVVAATPTSLLISWDAYKSLGGVDYYRITYGETGGNSPVQEFTVPGSSSTATISGLKPGVDYTITVYAGYLWYPYGEWSPISINYRT
B13: Mb(BgaD_L01) (designed binder)
chain: VSSVPTKLEVVAATPTSLLISWDAMDHTPYVYYYRITYGETGGNSPVQEFTVPGYYSTATISGLKPGVDYTITVYAGDLSWNFDFYSPISINYRT
B14: Mb(BgaD_S07) (designed binder)
chain: VSSVPTKLEVVAATPTSLLISWDAPAVTVDLYLITYGETGFSYGFPQAFTVPGSKSTATISGLKPGVDYTITVYASTVDGHSSPISINYRT
B15: Mb(BgaD_L14) (designed binder)
chain: VSSVPTKLEVVAATPTSLLISWDASSYYGVVSYYRITYGETGGNSPVQEFTVPGYSSTATISGLKPGVDYTITVYASYYYWYTSYTKSPISINYRT
B16: Mb(BgaD_S08) (designed binder)
chain: VSSVPTKLEVVAATPTSLLISWDAPAVTVDLYVITYGETGGSSWPQAFTVPGSKSTATISGLKPGVDYTITVYAHSWDHSYSPISINYRT
B17: Mb(BgaD_L04) (designed binder)
chain: VSSVPTKLEVVAATPTSLLISWDAYEHWSGVYYYRITYGETGGNSPVQEFTVPGSSSTATISGLKPGVDYTITVYAYSYSYASMYSPISINYRT
B18: Mb(BgaD_L18) (designed binder)
chain: VSSVPTKLEVVAATPTSLLISWDAESWYWPYYVSYYRITYGETGGNSPVQEFTVPSSSSTATISGLKPGVDYTITVYAFEHHEQRYYSPISINYRT
B19: Mb(BgaD_S13) (designed binder)
chain: VSSVPTKLEVVAATPTSLLISWDAPAVTVVFYVITYGETGVHWPGYQKFTVPGSKSTATISGLKPGVDYTITVYAQFPWYMGSPISINYRT
B20: Mb(BgaD_L03) (designed binder)
chain: VSSVPTKLEVVAATPTSLLISWDAGDYWVYYYRITYGETGGNSPVQEFTVPGYSSTATISGLKPGVDYTITVYAGDLSFNTYYYSPISINYRT
B21: Mb(CRL_L18) (designed binder)
chain: VSSVPTKLEVVAATPTSLLISWDAMQYSEYDVTYYRITYGETGGNSPVQEFTVPGSSSTATISGLKPGVDYTITVYAVWQYMHYMHSYSPISINYRT
notes: 109 is Mb(S19)); also called Mb(L18)
B22: Mb(CRL_L24) (designed binder)
chain: VSSVPTKLEVVAATPTSLLISWDASSSSVSYYRITYGETGGNSPVQEFTVPGSSSTATISGLKPGVDYTITVYAFGHYYGSWVWSPISINYRT
notes: also called Mb(L24)
B23: Mb(CRL_L23) (designed binder)
chain: B22 chain with V83A
notes: Mb(L23) and Mb(L24) differ by one residue and could be 116/117 in either order; also called Mb(L23)

Substitutions are numbered along the chain they refer to.

In one assay the target is BgaD-D active site mutant E447K (Bacillus circulans ATCC 31382). Kind of assay: bead assay, purified proteins, target given as BgaD-D/EK, titrated 0-1000 nM shown, 1:1 fit [panel a].
Regarding B1, the Kd came to 11 nM.

B2 gave a Kd of 12 nM.

The molecule B3 gave a Kd of 156 nM.

B4 came in with a Kd of 173 nM.

B5 came in with a Kd of 178 nM.

For a further assay, the target named is BgaD-D active site mutant E447Q (Bacillus circulans ATCC 31382). In words: bead assay, purified proteins, target given as BgaD-D/EQ, titrated 0-1000 nM shown, 1:1 fit [panel a].
Take B1: the Kd is 12 nM.

Molecule B2 came in with a Kd of 16 nM.

Molecule B3 displayed a Kd of 46 nM.

B4 gave a Kd of 72 nM.

In turn, B5 displayed a Kd of 239 nM.

For a further assay, the target named is BgaD-D, smallest isozyme of the β-galactosidase from B. circulans ATCC 31382 (Biolacta) (Bacillus circulans ATCC 31382). In words: Kd table; method not given.
B6: the Kd is 476 nM.

In the case of B1, the Kd worked out at 5.7 nM.

Molecule B2 yielded a Kd of 15 nM.

In the case of B7, the Kd came to 18 nM.

The molecule B8 came in with a Kd of 24 nM.

Take B9: the Kd is 11 nM.

Molecule B10 displayed a Kd of 33 nM.

Molecule B11 displayed an equilibrium dissociation constant (Kd) of 246 nM.

Regarding B12, the Kd is 515 nM.

Consider B5, for which the Kd turned out to be 184 nM.

As to B13, the Kd was 163 nM.

With B14, the Kd stood at 488 nM.

The molecule B15 displayed a Kd of 37 nM.

The molecule B16 registered a Kd of 214 nM.

B17 showed a dissociation constant (Kd) of 137 nM.

B18 gave a Kd of 147 nM.

In the case of B19, the Kd worked out at 50 nM.

As for B20, the dissociation constant Kd came to 76 nM.

Another assay shares this target. In words: bead assay with purified proteins, biotinylated monobody on streptavidin beads (FIG. 3B).
The molecule B15 came in with a Kd of 31 nM.

Another assay has as its target BgaD-D active site mutant E447R (Bacillus circulans ATCC 31382). In words: bead assay, purified proteins, target given as BgaD-D/ER, titrated 0-1000 nM shown, 1:1 fit [panel a].
Molecule B1 had a Kd of 11 nM.

For B2, the Kd was 16 nM.

B3 returned a dissociation constant Kd of 227 nM.

Take B4: the Kd worked out at 224 nM.

As for B5, the Kd came to 157 nM.

The next assay deals with BgaD-D, smallest isozyme of the β-galactosidase from B. circulans ATCC 31382 (Biolacta) (Bacillus circulans ATCC 31382). Kind of assay: Kd table; yeast-surface display (paragraph 202 repeats it as 600±170 nM).
B4: the Kd is 598 nM.

A further assay has the same target. In words: KD (nM) to BgaD-D; assay not given; the values equal those of the bead assay with purified proteins in FIG. 3B [panel c].
The molecule B1 gave a Kd of 9.9 nM.

As to B2, the Kd turned out to be 13 nM.

As to B3, the Kd worked out at 25 nM.

B5 came in with a Kd of 171 nM.

For the next assay the target is unchanged. Kind of assay: bead assay, purified proteins, target given as BgaD-D/WT, titrated 0-1000 nM shown, 1:1 fit [panel a].
Molecule B1 yielded a Kd of 9.9 nM.

On to B2, for which the Kd worked out at 13 nM.

Molecule B3 registered a Kd of 25 nM.

Regarding B4, the Kd amounted to 37 nM.

The molecule B5 yielded a Kd of 171 nM.

A further assay shares this target. Kind of assay: Kd table; yeast-surface display (paragraph 202 repeats it as 12±3 nM).
B3 had a Kd of 12 nM.

For another assay, the target named is T1, Candida rugosa lipase 1 (CRL1) (Candida rugosa, UniProt P20261 16-549, biotinylated with NHS-LC-biotin, about 2 biotin per CRL1 molecule (binding assays)).
T1 construct: Bought purified protein
Kind of assay: yeast-surface display of the monobody, CRL1 titrated, flow cytometry, 1:1 fit [panel a]. As to the method:
Affinity of monobodies to CRL1 was determined using yeast-surface display, as described previously. Yeast cells displaying a monobody were incubated with varying concentrations of CRL1, washed with the buffer and stained with appropriate fluorescently labeled secondary detection reagents, prior to analysis on a flow cytometer (Guava EasyCyte 6/L, Millipore). KD values were determined from plots of the mean fluorescent intensity against CRL1 concentration by fitting the 1:1 binding model using SigmaPlot software (Systat Software).
A general note: In flow cytometry, cells or beads pass a laser one at a time.
Molecule B21 gave a Kd of 54 nM.

For B22, the Kd is 9.3 nM.

B23: binding was characterised by a dissociation constant (Kd) of 11 nM.

For another assay, the target named is T1, Candida rugosa lipase 1 (CRL1). In words: cell-based or functional assay.
As to B21, the “CRL1 activity toward C8 triacylglyceride (fold reduction relative to CRL1 alone)” value is 11 fold, the “CRL1 activity toward C10 triacylglyceride (fold reduction relative to CRL1 alone)” value was 102 fold and the “CRL1 activity toward C12 triacylglyceride (fold reduction relative to CRL1 alone)” value is 4.5 fold.

A further assay addresses BgaD-D, smallest isozyme of the β-galactosidase from B. circulans ATCC 31382 (Biolacta) (Bacillus circulans ATCC 31382). In words: bead assay, purified proteins: biotinylated monobody on streptavidin-coated beads, BgaD-D titrated (0-1000 nM shown), flow cytometry, 1:1 fit [panel b].
As to B1, the Kd turned out to be 9.9 nM.

Molecule B2 gave a Kd of 13 nM.

Turning to B3, the Kd worked out at 25 nM.

For the molecule B4, the Kd was 37 nM.

B5: the Kd was 171 nM.

The target is the same in a further assay. In words: cell-based or functional assay.
B3 gave a production of DP4 by BgaD-D (fold reduction) of 4.5 fold and a production of DP5+ by BgaD-D (fold reduction) of 30 fold.

For orientation: Kd means a measure of binding affinity in units of concentration.

(Values after patent US20180208678A1 (UNIVERSITY OF CHICAGO, published 2018).)
